Test results published in US20220372147A1 (UNIVERSIT T STUTTGART, published 2022).

What was measured:
[1] = biological target: T1, FAP on FAP-expressing HT1080-FAP cells (UniProt Q12884 1-760, limits assumed); assay: flow cytometry on FAP-expressing HT1080-FAP cells, PE anti-human Fc
T1 construct: whole, on cells

[2] = biological target: T2, mouse CD3 on murine spleenocytes (mouse, UniProt P22646 22-189); assay: flow cytometry on murine spleenocytes (mouse CD3), PE anti-human Fc
T2 construct: whole, on cells; also called murine CD3-expressing murine spleenocytes; moCD3
T2 sequence (P22646 22-189): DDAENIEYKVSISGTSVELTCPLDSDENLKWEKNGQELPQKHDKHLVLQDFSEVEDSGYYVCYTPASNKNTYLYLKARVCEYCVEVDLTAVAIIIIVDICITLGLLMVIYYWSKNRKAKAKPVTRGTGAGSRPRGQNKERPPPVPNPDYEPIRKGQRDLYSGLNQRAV

EC50 [1]: 2.7 nM
EC50 [2]: 24.2 nM
B1: bivalent and bispecific eIg molecule targeting FAP and mouse CD3, molecule II (bispecific antibody)
light 1: DIQMTQSPSSLSASVGDRVTITCRASKSVSTSAYSYMHWYQQKPGKAPKLLIYLASNLESGVPSRFSGSGSGTDFTLTISSLQPEDFATYYCQHSRELPYTFGQGTKLEIKRRTVAAPSVFIFPPSDEQLKSGTASVVCLLNNFYPREAKVQWKVDNALQSGNSQESVTEQDSKDSTYSLSSTLTLSKADYEKHKVYACEVTHQGLSSPVTKSFNRGEC
heavy 1: QVQLVQSGAEVKKPGASVKVSCKASGYTFTENIIHWVRQAPGQGLEWMGWFHPGSGSIKYNEKFKDRVTMTADTSTSTVYMELSSLRSEDTAVYYCARHGGTGRGAMDYWGQGTLVTVSSASTKGPSVFPLAPSSKSTSGGTAALGCLVKDYFPEPVTVSWNSGALTSGVHTFPAVLQSSGLYSLSSVVTVPSSSLGTQTYICNVNHKPSNTKVDKKVEPKSCGTDKTHTCPPCPAPPVAGPSVFLFPPKPKDTLMISRTPEVTCVVVDVSHEDPEVKFNWYVDGVEVHNAKTKPREEQYNSTYRVVSVLTVLHQDWLNGKEYKCKVSNKGLPSSIEKTISKAKGQPREPQVCTLPPSRDELTKNQVSLSCAVKGFYPSDIAVEWESNGQPENNYKTTPPVLDSDGSFFLVSKLTVDKSRWQQGNVFSCSVMHEALHNHYTQKSLSLSPGK
light 2: DIQMTQSPSSLPASLGDRVTINCQASQDISNYLNWYQQKPGKAPKLLIYYTNKLADGVPSRFSGSGSGRDSSFTISSLESEDIGSYYCQQYYNYPWTFGPGTKLEIKDFTPPTVKILQSSSDGGGHFPPTIQLLCLVSGYTPGTIQITWLEDGQVMDVDLSTASTTQEGELASTQSELTLSQKHWLSDRTYTCQVTYQGHTFEDSTKKCADSN
heavy 2: EVQLVESGGGLVQPGKSLKLSCEASGFTFSGYGMHWVRQAPGRGLESVAYITSSSINIKYADAVKGRFTVSRDNAKNLLFLQMNILKSEDTAMYYCARFDWDKNYWGQGTMVTVSSDFTPPTVKILQSSCDGGGHFPPTIQLLCLVSGYTPGTINITWLEDGQVMDVDLSTASTTQEGELASTQSELTLSQKHWLSDRTYTCQVTYQGHTFEDSTKKSADSNGTDKTHTCPPCPAPPVAGPSVFLFPPKPKDTLMISRTPEVTCVVVDVSHEDPEVKFNWYVDGVEVHNAKTKPREEQYNSTYRVVSVLTVLHQDWLNGKEYKCKVSNKGLPSSIEKTISKAKGQPREPQVYTLPPCRDELTKNQVSLWCLVKGFYPSDIAVEWESNGQPENNYKTTPPVLDSDGSFFLYSKLTVDKSRWQQGNVFSCSVMHEALHNHYTQKSLSLSPGK
notes: also called eIg FAP × moCD3 II; second molecule
